Positions count from the first letter of the chain named.
T1: recombinant purified human RGM A (R&D Systems Cat# 2459-RM) (human) (UniProt Q96B86)
T1 sequence: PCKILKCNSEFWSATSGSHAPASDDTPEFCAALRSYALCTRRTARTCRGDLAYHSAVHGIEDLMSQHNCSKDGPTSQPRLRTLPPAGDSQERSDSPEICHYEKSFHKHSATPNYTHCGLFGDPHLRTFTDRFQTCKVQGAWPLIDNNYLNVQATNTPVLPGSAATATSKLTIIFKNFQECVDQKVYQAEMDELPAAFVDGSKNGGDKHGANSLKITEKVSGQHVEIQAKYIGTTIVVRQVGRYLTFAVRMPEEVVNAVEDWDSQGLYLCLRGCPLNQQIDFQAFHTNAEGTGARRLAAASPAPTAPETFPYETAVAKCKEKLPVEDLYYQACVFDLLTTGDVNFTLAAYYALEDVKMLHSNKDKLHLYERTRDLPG

B1: h5F9.21 (antibody, human IgG1, V domains shown)
VH: EVQLVESGGGVVQPGRSLRLSCAASGFTFSNYGMNWIRQAPGKGLEWIGMIYYDSSEKHYADSVKGRFTISRDNSKNTLYLQMNSLRAEDTAVYYCAKGTTPDYWGQGTMVTVSS
VL: DVVLTQSPLSLPVTLGQPASISCRSSQSLEYSDGYTFLEWFLQKPGQSPQLLIYEVSNRFSGVPDRFSGSGSGTDFTLKISRVEAEDVGVYYCFQATHDPLTFGQGTKLEIKR
B2: h5F9.25 (antibody, human IgG1, V domains shown)
VH: B1 VH with V11L, R16G
VL: B1 VL
B3: h5F9.23 (antibody, human IgG1, V domains shown)
VH: B1 VH with V11L, R16G
VL: B1 VL with L42Q, K44R, Q50R
B4: h5F9.24 (antibody, human IgG1, V domains shown)
VH: B1 VH with V11L, R16G
VL: B1 VL with L42Q, K44R, Q50R, L51R
B5: chimeric 5F9 (antibody, V domains shown)
VH: B1 VH with V11L, R16S, R19K, A23V, G42K, Q82E, A88S, V93I, T109V
VL: B1 VL with S7T, L9V, P12S, Q17D, P18Q, I21M, S68I, A85P, V88L, Q105S

Target: T1, recombinant purified human RGM A (R&D Systems Cat# 2459-RM) (human)
Assay: competition ELISA on coated hRGMA; competitor biotinylated chimeric 5F9

IC50 | Binder
0.6 µg/mL | B1
0.66 µg/mL | B2
0.55 µg/mL | B3
1.32 µg/mL | B4

Target: T1, recombinant purified human RGM A (R&D Systems Cat# 2459-RM) (human)
Assay: SPR (Biacore 3000), antibody captured by anti-human IgG Fc, hRGMA in solution, 25 °C

Kd | koff | kon | Binder
7.59 nM | 0.00269 s⁻¹ | 355000 M⁻¹ s⁻¹ | B1
5.78 nM | 0.00329 s⁻¹ | 570000 M⁻¹ s⁻¹ | B2
3.09 nM | 0.00236 s⁻¹ | 765000 M⁻¹ s⁻¹ | B5
4.37 nM | 0.00221 s⁻¹ | 507000 M⁻¹ s⁻¹ | B3

Reference: US20100028340A1
